Data reported in PMC3413138.
Where two headings read alike, the source gives them in different places.

Assays:
Experiment in all cases: SPR
beta-catenin FL [1] = target: T1, beta-catenin FL (UniProt P35222 1-781)
HuR = HuR (UniProt Q15717 1-326)
beta-catenin FL [2] = target: T1, beta-catenin FL; remark: listed apart in the source
beta-catenin FL [3] = target: T1, beta-catenin FL; remark: listed apart in the source

T1 sequence (P35222 whole entry): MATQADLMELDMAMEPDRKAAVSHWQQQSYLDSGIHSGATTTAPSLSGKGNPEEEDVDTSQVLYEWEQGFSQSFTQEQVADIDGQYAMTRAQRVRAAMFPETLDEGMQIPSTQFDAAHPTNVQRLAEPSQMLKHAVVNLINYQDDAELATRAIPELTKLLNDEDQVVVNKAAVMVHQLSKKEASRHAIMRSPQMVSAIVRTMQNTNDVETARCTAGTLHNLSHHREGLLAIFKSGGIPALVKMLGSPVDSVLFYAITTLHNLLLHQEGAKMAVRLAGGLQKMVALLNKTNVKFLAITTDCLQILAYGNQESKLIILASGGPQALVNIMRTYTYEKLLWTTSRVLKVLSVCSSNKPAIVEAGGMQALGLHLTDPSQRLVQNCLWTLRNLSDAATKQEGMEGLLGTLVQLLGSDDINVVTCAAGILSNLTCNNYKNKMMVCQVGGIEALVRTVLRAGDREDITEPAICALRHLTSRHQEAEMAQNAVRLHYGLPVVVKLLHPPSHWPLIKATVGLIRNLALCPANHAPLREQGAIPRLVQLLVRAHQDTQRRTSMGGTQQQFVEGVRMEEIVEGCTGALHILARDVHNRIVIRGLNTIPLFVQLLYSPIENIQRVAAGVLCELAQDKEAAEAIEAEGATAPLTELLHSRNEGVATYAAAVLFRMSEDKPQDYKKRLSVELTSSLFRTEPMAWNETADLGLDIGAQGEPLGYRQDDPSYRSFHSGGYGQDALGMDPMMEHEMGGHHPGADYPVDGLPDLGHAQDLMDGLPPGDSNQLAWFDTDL
Sequence of HuR (Q15717 whole entry): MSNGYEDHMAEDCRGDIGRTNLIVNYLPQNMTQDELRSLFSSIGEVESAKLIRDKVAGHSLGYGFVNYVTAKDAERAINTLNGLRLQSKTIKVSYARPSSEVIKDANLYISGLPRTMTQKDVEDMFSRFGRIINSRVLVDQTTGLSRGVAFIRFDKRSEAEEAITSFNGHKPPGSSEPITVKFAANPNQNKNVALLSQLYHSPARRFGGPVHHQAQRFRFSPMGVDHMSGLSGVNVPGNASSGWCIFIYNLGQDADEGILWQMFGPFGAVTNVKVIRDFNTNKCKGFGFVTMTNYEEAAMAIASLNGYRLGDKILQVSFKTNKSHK

B1: negative control NC RNA (ssRNA)
RNA: CAUAGCUCAUUAUACCCUCCUGGGCUCAAGCAAUCCCCCUAACUCUGCCUCCCCAGUAGCUAGGACCACAGGCAUACACC
- binding result (beta-catenin FL [1]): no binding

B2: COX-2 3'-UTR U-4 (ssRNA)
RNA: UGUAACAGAAGUCAGUACUCCUGUUGCGGAGAAAGGAGUCAUACUUGUGAAGACUUUUAUGUCACUACUCUAAAGAUUUUGCUGUUGCUGUUAAGUUUGG
- Kd (HuR): 3510 nM
- Kd (beta-catenin FL [2]): 131 nM

B3: COX-2 3'-UTR U-2 (ssRNA)
RNA: AAGUCUAAUGAUCAUAUUUAUUUAUUUAUAUGAACCAUGUCUAUUAAUUUAAUUAUUUAAUAAUAUUUAUAUUAAACUCCUUAUGUUACUUAACAUCUUCUGUAACAGAAGUCAGUACUCCUGUUGCGGAGAAAGGAGUCAUACUUGUGAAGACUUUUAUGUCACUACUCUAAAGAUUUUGCUGUUGC
- Kd (HuR): 81.3 nM
- Kd (beta-catenin FL [3]): 158 nM

B4: COX-2 3'-UTR U-3 (ssRNA)
RNA: GCGGAGAAAGGAGUCAUACUUGUGAAGACUUUUAUGUCACUACUCUAAAGAUUUUGCUGUUGCUGUUAAGUUUGGAAAACAGUUUUUAUUCUGUUUUAUAAACCAGAGAGAAAUGAGUUUUGACGUCUUUUUACUUGAAUUUCAACUUAUAUUAUAAGGACGAAAGUAAAGAUGUUUGAAUACUUAAACACUAUCACAAGAUGCCAA
- Kd (beta-catenin FL [3]): 2600 nM

B5: COX-2 3'-UTR U-1 (ssRNA)
RNA: AAGUCUAAUGAUCAUAUUUAUUUAUUUAUAUGAACCAUGUCUAUUAAUUUAAUUAUUUAAUAAUAUUUAUAUUAAACUCCUUAUGUUACUUAACAUCUUCUGUAACAGAAGUCAGUACUCCUGUUGCGGAGAAAGGAGUCAUACUUGUGA
- Kd (HuR): 33.4 nM
